Assay [1] deals with His-tagged recombinant full-length HB3VAR06 (FV6) (P. falciparum HB3). The experiment in a line: ELISA; MaxiSorp plates coated with recombinant PfEMP1 constructs (18 nM, overnight, 4°C); blocked in TSM buffer with 1% Ig-free BSA; α2M or α2M-MA (10 nM; titrated in Fig 2A); detected with anti-α2M antibodies. Background: An ELISA detects its analyte on a solid surface through an enzyme-linked reagent.

Assay [2] shares this target. The experiment in a line: SEC; Superdex 200 10/30 HR, 50 mM Tris-HCl, 150 mM NaCl, pH 7.4; α2M (150 μg) alone and with molar ratios of FV6, incubated on ice 15 min; 0.5 mL/min, A280.

B1: α2-macroglobulin (α2M), native (natural protein)
chain: SVSGKPQYMVLVPSLLHTETTEKGCVLLSYLNETVTVSASLESVRGNRSLFTDLEAENDVLHCVAFAVPKSSSNEEVMFLTVQVKGPTQEFKKRTTVMVKNEDSLVFVQTDKSIYKPGQTVKFRVVSMDENFHPLNELIPLVYIQDPKGNRIAQWQSFQLEGGLKQFSFPLSSEPFQGSYKVVVQKKSGGRTEHPFTVEEFVLPKFEVQVTVPKIITILEEEMNVSVCGLYTYGKPVPGHVTVSICRKYSDASDCHGEDSQAFCEKFSGQLNSHGCFYQQVKTKVFQLKRKEYEMKLHTEAQIQEEGTVVELTGRQSSEITRTITKLSFVKVDSHFRQGIPFFGQVRLVDGKGVPIPNKVIFIRGNEANYYSNATTDEHGLVQFSINTTNVMGTSLTVRVNYKDRSPCYGYQWVSEEHEEAHHTAYLVFSPSKSFVHLEPMSHELPCGHTQTVQAHYILNGGTLLGLKKLSFYYLIMAKGGIVRTGTHGLLVKQEDMKGHFSISIPVKSDIAPVARLLIYAVLPTGDVIGDSAKYDVENCLANKVDLSFSPSQSLPASHAHLRVTAAPQSVCALRAVDQSVLLMKPDAELSASSVYNLLPEKDLTGFPGPLNDQDNEDCINRHNVYINGITYTPVSSTNEKDMYSFLEDMGLKAFTNSKIRKPKMCPQLQQYEMHGPEGLRVGFYESDVMGRGHARLVHVEEPHTETVRKYFPETWIWDLVVVNSAGVAEVGVTVPDTITEWKAGAFCLSEDAGLGISSTASLRAFQPFFVELTMPYSVIRGEAFTLKATVLNYLPKCIRVSVQLEASPAFLAVPVEKEQAPHCICANGRQTVSWAVTPKSLGNVNFTVSAEALESQELCGTEVPSVPEHGRKDTVIKPLLVEPEGLEKETTFNSLLCPSGGEVSEELSLKLPPNVVEESARASVSVLGDILGSAMQNTQNLLQMPYGCGEQNMVLFAPNIYVLDYLNETQQLTPEIKSKAIGYLNTGYQRQLNYKHYDGSYSTFGERYGRNQGNTWLTAFVLKTFAQARAYIFIDEAHITQALIWLSQRQKDNGCFRSSGSLLNNAIKGGVEDEVTLSAYITIALLEIPLTVTHPVVRNALFCLESAWKTAQEGDHGSHVYTKALLAYAFALAGNQDKRKEVLKSLNEEAVKKDNSVHWERPQKPKAPVGHFYEPQAPSAEVEMTSYVLLAYLTAQPAPTSEDLTSATNIVKWITKQQNAQGGFSSTQDTVVALHALSKYGAATFTRTGKAAQVTIQSSGTFSSKFQVDNNNRLLLQQVSLPELPGEYSMKVTGEGCVYLQTSLKYNILPEKEEFPFALGVQTLPQTCDEPKAHTSFQISLSVSYTGSRSASNMAIVDVKMVSGFIPLKPTVKMLERSNHVSRTEVSSNHVLIYLDKVSNQTLSLFFTVLQDVPVRDLKPAIVKVYDYYETDEFAIAEYNAPCSKDLGNA
The stoichiometry N is the number of molecules, sites or subunits per partner or assembly. As to B1, in assay [1], the amount bound relative to α2M-MA (fold) worked out at 4 fold. Besides, in assay [2], the stoichiometry N was more than 4 FV6 per α2M.

B2: methylamine-activated α2-macroglobulin (α2M-MA) (natural protein)
chain: SVSGKPQYMVLVPSLLHTETTEKGCVLLSYLNETVTVSASLESVRGNRSLFTDLEAENDVLHCVAFAVPKSSSNEEVMFLTVQVKGPTQEFKKRTTVMVKNEDSLVFVQTDKSIYKPGQTVKFRVVSMDENFHPLNELIPLVYIQDPKGNRIAQWQSFQLEGGLKQFSFPLSSEPFQGSYKVVVQKKSGGRTEHPFTVEEFVLPKFEVQVTVPKIITILEEEMNVSVCGLYTYGKPVPGHVTVSICRKYSDASDCHGEDSQAFCEKFSGQLNSHGCFYQQVKTKVFQLKRKEYEMKLHTEAQIQEEGTVVELTGRQSSEITRTITKLSFVKVDSHFRQGIPFFGQVRLVDGKGVPIPNKVIFIRGNEANYYSNATTDEHGLVQFSINTTNVMGTSLTVRVNYKDRSPCYGYQWVSEEHEEAHHTAYLVFSPSKSFVHLEPMSHELPCGHTQTVQAHYILNGGTLLGLKKLSFYYLIMAKGGIVRTGTHGLLVKQEDMKGHFSISIPVKSDIAPVARLLIYAVLPTGDVIGDSAKYDVENCLANKVDLSFSPSQSLPASHAHLRVTAAPQSVCALRAVDQSVLLMKPDAELSASSVYNLLPEKDLTGFPGPLNDQDNEDCINRHNVYINGITYTPVSSTNEKDMYSFLEDMGLKAFTNSKIRKPKMCPQLQQYEMHGPEGLRVGFYESDVMGRGHARLVHVEEPHTETVRKYFPETWIWDLVVVNSAGVAEVGVTVPDTITEWKAGAFCLSEDAGLGISSTASLRAFQPFFVELTMPYSVIRGEAFTLKATVLNYLPKCIRVSVQLEASPAFLAVPVEKEQAPHCICANGRQTVSWAVTPKSLGNVNFTVSAEALESQELCGTEVPSVPEHGRKDTVIKPLLVEPEGLEKETTFNSLLCPSGGEVSEELSLKLPPNVVEESARASVSVLGDILGSAMQNTQNLLQMPYGCGEQNMVLFAPNIYVLDYLNETQQLTPEIKSKAIGYLNTGYQRQLNYKHYDGSYSTFGERYGRNQGNTWLTAFVLKTFAQARAYIFIDEAHITQALIWLSQRQKDNGCFRSSGSLLNNAIKGGVEDEVTLSAYITIALLEIPLTVTHPVVRNALFCLESAWKTAQEGDHGSHVYTKALLAYAFALAGNQDKRKEVLKSLNEEAVKKDNSVHWERPQKPKAPVGHFYEPQAPSAEVEMTSYVLLAYLTAQPAPTSEDLTSATNIVKWITKQQNAQGGFSSTQDTVVALHALSKYGAATFTRTGKAAQVTIQSSGTFSSKFQVDNNNRLLLQQVSLPELPGEYSMKVTGEGCVYLQTSLKYNILPEKEEFPFALGVQTLPQTCDEPKAHTSFQISLSVSYTGSRSASNMAIVDVKMVSGFIPLKPTVKMLERSNHVSRTEVSSNHVLIYLDKVSNQTLSLFFTVLQDVPVRDLKPAIVKVYDYYETDEFAIAEYNAPCSKDLGNA
modifications: internal thioester cleaved by methylamine (MA-activated)
As to B2, the stoichiometry N (FV6 per α2M-MA) in assay [2] was 1.
